Experimental data published in patent US20220251562, “Anti-CD3 Aptamers for Use in Cell Targeting and Labeling” (Ixaka France, published 2022).

What was measured:
[1] = target: T1, CD3 epsilon/gamma heterodimer (Homo sapiens, UniProt P07766;P09693 P07766:23-126,P09693:23-116); assay: SPR; kinetic, DPBS; conditions: tags: C-terminal human IgG1 Fc fusion, AcroBiosystems; chain copies: heterodimer 1:1 (inferred); label: 5'-biotin-TEG
Experimental: (§1) Binding affinity measurements were performed using a BIAcore T200 instrument (GE Healthcare). To analyze interactions between aptamers and CD3 proteins, 1000 Resonance Units of biotinylated aptamers were immobilized on Series S Sensor chips SA (GE Healthcare) according to manufacturer's instructions (GE Healthcare). SELEX buffer was used as the running buffer. The interactions were measured in the “Single Kinetics Cycle” mode at a flow rate of 30 μl/min and by injecting different concentrations of human CD3 ε/γ, CD3 ε/δ, IgG1 Fc and mouse CD3 ε/δ (Sino Biological). The highest protein concentration used was 100 nM. Other concentrations were obtained by 3-fold dilution. All kinetic data of the interaction were evaluated using the BIAcore T200 evaluation software. Table 3 below provides a summary of KD values obtained from surface plasmon resonance measurements.
(§2) Binding of anti-CD3 RNA aptamers to each of purified recombinant human CD3 ε/γ and CD3 ε/δ proteins was measured using surface plasmon resonance. Binding studies were performed generally as described in Example 5 except that SELEX buffer was replaced by DPBS. The highest protein concentration used was 300 nM. Other concentrations were obtained by 3-fold dilution. Binding to hIgG1 Fc was used as control. Binding to murine CD3 do (mCD3 c/S) was also measured.

[2] = target: T2, CD3 epsilon/delta heterodimer (Homo sapiens, UniProt P07766;P04234 P07766:23-126,P04234:22-105); assay: SPR; NA, DPBS; conditions: tags: C-terminal human IgG1 Fc fusion, AcroBiosystems; chain copies: heterodimer 1:1 (inferred); label: 5'-biotin-TEG
Experimental: as §1, §2

[3] = target: T3, IgG1 Fc (counter target) (Homo sapiens, UniProt P01857-1 P01857-1:100-330); assay: SPR; NA, DPBS; conditions: tags: AcroBiosystems; chain copies: 2; label: 5'-biotin-TEG
Experimental: as §1, §2

[4] = target: T3, IgG1 Fc (counter target); assay: SPR; no interaction observed; conditions: tags: AcroBiosystems; chain copies: 2; label: 5'-biotin-TEG
Experimental: Binding affinity measurements with the most interesting anti-CD3 aptamers derived from the core sequence were performed using a BIAcore T200 instrument (GE Healthcare) as already described in Example 4. To analyze interactions between aptamers and CD3 proteins, biotinylated aptamers were immobilized at a lower density than in Example 4 (100-500 RU) on Series S Sensor chips SA (GE Healthcare) according to manufacturer's instructions (GE Healthcare). Mouse and Cynomolgus CD3 ε/δ were purchased from AcroBiosystems. For human proteins, the highest concentration used was 100 nM and 1 μM for mouse and cynomolgus antigens. Other concentrations were obtained by 3-fold dilutions.
Table 8 below provides a summary of KD values obtained from surface plasmon resonance measurements. […] Variants of the core sequence identified in cell binding assays (CELTIC_core_12, CELTIC_core_24, CELTIC_core_29, CELTIC_core_40 and CELTIC_core_42) were all confirmed to have better affinities than the unmodified aptamer with human CD3 ε/γ. As already observed in Example 4, the affinities were in general slightly lower with CD3 ε/δ which is a consequence of the SELEX strategy that included more rounds on the CD3 ε/γ isoform. None of these sequences did bind to the Fc region of human IgG1.

[5] = target: T3, IgG1 Fc (counter target); assay: SPR; no interaction observed; conditions: tags: AcroBiosystems; chain copies: 2; label: 5'-biotin-TEG; remark: listed apart in the source
Experimental: as §1

[6] = target: T2, CD3 epsilon/delta heterodimer; assay: SPR; steady state; kinetic 3.2 uM (Table 6); conditions: tags: C-terminal human IgG1 Fc fusion, AcroBiosystems; chain copies: heterodimer 1:1 (inferred); label: 5'-biotin-TEG
Experimental: as §1

[7] = target: T1, CD3 epsilon/gamma heterodimer; assay: SPR; steady state; kinetic 65.2 nM (Table 6); conditions: tags: C-terminal human IgG1 Fc fusion, AcroBiosystems; chain copies: heterodimer 1:1 (inferred); label: 5'-biotin-TEG
Experimental: as §1

[8] = target: T2, CD3 epsilon/delta heterodimer; assay: SPR; steady state; kinetic 3.7 nM (Table 3), 9.9 nM (Table 6), 217 pM (Table 8); conditions: tags: C-terminal human IgG1 Fc fusion, AcroBiosystems; chain copies: heterodimer 1:1 (inferred); label: 5'-biotin-TEG
Experimental: as §1

[9] = target: T3, IgG1 Fc (counter target); assay: SPR; NA, no interaction; Table 3 prints 56.3 mM; conditions: tags: AcroBiosystems; chain copies: 2; label: 5'-biotin-TEG
Experimental: as §1

[10] = target: T1, CD3 epsilon/gamma heterodimer; assay: SPR; steady state; kinetic fits 5 nM (Table 3), 5.2 nM (Table 6), 119 pM (Table 8), 156 nM steady state (Table 9); SELEX buffer Mg Ca; conditions: tags: C-terminal human IgG1 Fc fusion, AcroBiosystems; chain copies: heterodimer 1:1 (inferred); label: 5'-biotin-TEG
Experimental: as §1

[11] = target: T3, IgG1 Fc (counter target); assay: SPR; no interaction observed; printed CELTIC_CD3_22; conditions: tags: AcroBiosystems; chain copies: 2; label: 5'-biotin-TEG
Experimental: as §1

T2 sequence (P07766 23-126, stated change not applied, chain 1 of 2): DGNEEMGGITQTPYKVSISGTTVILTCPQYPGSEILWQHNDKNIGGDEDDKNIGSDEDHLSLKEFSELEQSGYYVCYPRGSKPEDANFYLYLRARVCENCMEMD
T2 sequence (P04234 22-105, stated change not applied, chain 2 of 2): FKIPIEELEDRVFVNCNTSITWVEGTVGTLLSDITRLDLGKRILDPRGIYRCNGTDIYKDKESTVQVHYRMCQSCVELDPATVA
T1 sequence (P07766 23-126, chain 1 of 2): as the sequence (P07766 23-126, stated change not applied, chain 1 of 2) above
T1 sequence (P09693 23-116, chain 2 of 2): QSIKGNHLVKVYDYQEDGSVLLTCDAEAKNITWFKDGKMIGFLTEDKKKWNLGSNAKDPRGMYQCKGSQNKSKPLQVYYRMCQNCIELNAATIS

GAUGAUAUCUUUAAUAUCAAUUGCAGCGAUUCUUGUUUGAGAAUAAAC (ssRNA, 2'-F pyrimidines) [ARACD3-3130001]
Kd [1]: 0.332 µM
binding result [2]: no binding
binding result [3]: no binding

GGGTTTGGCATCGGGTCTGGC (ssDNA, 5'-HEG, 3'-3' dT) [CELTIC_core_40t]
binding result [4]: no binding

GAGGGGTTTGGCATCGGGCCTGGCGCCATTCAAGCTATGC (ssDNA) [CELTIC_2s]
binding result [5]: no binding
Kd [6]: 0.26 µM
Kd [7]: 0.627 µM

TTTCCGGGTGGGGGTTTGGCACCGGGCCTGGCGCAGGGATTCG (ssDNA) [CELTIC_1s]
Kd [8]: 0.125 µM
binding result [9]: no binding
Kd [10]: 0.053 µM

CGACCACAGGGGTTTGGCTTCGGGACTGGCGGTGGGCACT (ssDNA) [CELTIC_22s]
binding result [11]: no binding
